In patent publication US5650391:

Tests used:
[1] = biological target: low density lipoprotein receptor-related protein/a2-macroglobulin receptor (LRP) on rat hepatoma MH1 C1 cells (rat)
[2] = biological target: low density lipoprotein receptor-related protein/a2-macroglobulin receptor (LRP) on rat hepatoma MH1 C1 cells (rat); remark: listed apart in the source
[3] = biological target: human low density lipoprotein receptor-related protein (LRP) on human hepatoma HepG2 cells (human) (UniProt Q07954)
[4] = biological target: factor Xa
[5] = biological target: TFPI binding sites on rat hepatoma MH1 C1 cells (receptor not identified); assay: binding of ^125 I-TFPI to MH1 C1 cell monolayers at 4° C. (saturation with Scatchard analysis, and competition by unlabelled TFPI)

inhibition of ^125 I-TFPI degradation (trichloroacetic acid-soluble radioactivity) by MH1 C1 cells, 4 h at 37° C. [1]	degradation of pre-bound ^125 I-TFPI in a single cycle of endocytosis in MH1 C1 cells [2]	degradation of pre-bound ^125 I-TFPI by HepG2 cells (single cycle endocytosis assay) [3]	functional activity (stoichiometric inhibition of factor Xa) [4]	Kd [5]	Substance
80%	80%	65%			receptor-associated protein (RAP), 39-kDa protein, full-length (1-319) (ligand)
			88%	30 nM	recombinant human full-length tissue factor pathway inhibitor (TFPI) (from UniProt P10646) (ligand)
